The assay has as its system ischemic stroke (MCAO). As to the kind of experiment: Transient focal ischemia (MCAO) model of stroke. It counts as in vivo, rat. Particulars: rats; rTPA 6 hours after stroke, with or without bryostatin-1 2 hours later. The method, then:
A transient animal model of focal ischemia was used for these experiments. The middle cerebral artery (MCA) was surgically dissected and occluded in anesthetized rats by ligature, followed by reperfusion after a defined period (about 2 hours). Animal models transient ischemia via occlusion of the MCA (MCAO) are described in, e.g., Sicard and Fisher, Exp. & Transl. Stroke Med. (2009), vol. 1, pp. 1-7.

B1: rTPA: recombinant tissue plasminogen activator, thrombolytic serine protease (protein, UniProt P00750 36-562, looked up)
Tissue-type plasminogen …: SYQVICRDEKTQMIYQQHQSWLRPVLRSNRVEYCWCNSGRAQCHSVPVKSCSEPRCFNGGTCQQALYFSDFVCQCPEGFAGKCCEIDTRATCYEDQGISYRGTWSTAESGAECTNWNSSALAQKPYSGRRPDAIRLGLGNHNYCRNPDRDSKPWCYVFKAGKYSSEFCSTPACSEGNSDCYFGNGSAYRGTHSLTESGASCLPWNSMILIGKVYTAQNPSAQALGLGKHNYCRNPDGDAKPWCHVLKNRRLTWEYCDVPSCSTCGLRQYSQPQFRIKGGLFADIASHPWQAAIFAKHRRSPGERFLCGGILISSCWILSAAHCFQERFPPHHLTVILGRTYRVVPGEEEQKFEVEKYIVHKEFDDDTYDNDIALLQLKSDSSRCAQESSVVRTVCLPPADLQLPDWTECELSGYGKHEALSPFYSERLKEAHVRLYPSSRCTSQHLLNRTVTDNMLCAGDTRSGGPQANLHDACQGDSGGPLVCLNDGRMTLVGIISWGLGCGQKDVPGVYTKVTNYLDWIRDNMRP
As for B1, the “mortality 24 hours later” value came to 44%.

For the origin of these results see patent US20120027687A1, “FATTY ACID PROTEIN KINASE C ACTIVATORS AND ANTICOAGULANT FOR THE TREATMENT OF STROKE” (priority 2010, published 2012).
